The text below walks through data of publication doi:10.1101/2024.05.23.595439.

The target of one data set is SSB (full-length) (Escherichia coli, UniProt P0AGE0 1-178). As to the kind of experiment: MST.
The target in the next data set is T1, SSF (full-length) (Escherichia coli F plasmid, UniProt P18310 1-179).
T1 sequence: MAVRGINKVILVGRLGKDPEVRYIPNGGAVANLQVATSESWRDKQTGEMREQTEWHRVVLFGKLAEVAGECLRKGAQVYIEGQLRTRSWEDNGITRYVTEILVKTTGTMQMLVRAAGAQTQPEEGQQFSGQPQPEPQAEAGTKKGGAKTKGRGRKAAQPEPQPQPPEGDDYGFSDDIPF
As to the kind of experiment: MST.

By Kd is commonly meant the constant that tells how readily two partners part at equilibrium. Higher therefore signals lower affinity.

Chain of SSB (full-length) (P0AGE0 whole entry): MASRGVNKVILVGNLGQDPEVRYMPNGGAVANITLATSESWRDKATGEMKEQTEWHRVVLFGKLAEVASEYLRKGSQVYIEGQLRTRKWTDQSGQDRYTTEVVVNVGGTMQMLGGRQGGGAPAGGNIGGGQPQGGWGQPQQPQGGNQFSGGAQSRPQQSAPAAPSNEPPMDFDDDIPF

B1: hairpin dsDNA (structured_DNA)
DNA: GGCAAATTACTCCTGTAATTTGCC
For B1, the binding result with SSB (full-length) is “no binding”. Binding with SSF (full-length) was characterised by a dissociation constant (Kd) of 45.3 µM.
